# Measurements from patent US20260167714A1 (COHERUS BIOSCIENCES, published 2026).
# B1: Hz180-LALA (antibody, human IgG1, kappa, L234A L235A, V domains shown)
# VH: QVQLVQSGAEVKKPGSSVKVSCKASGYSFIGYFMNWMRQAPGQGLEWIGRINPYNGDIFYNQKFKGRVTITVDKSTSTAYMELSSLRSEDTAVYYCARGITVAAGSFDVWGQGTTVTVSS
# VL: DIVMTQSPDSLAVSLGERATINCRASESVDNYGNTFMHWYQQKPGQPPKLLIYRASNLESGIPDRFSGSGSGTDFTLTISSLQAEDVAVYYCQQSSDHPLTFGGGTKVEIKR
# notes: Humanized L180S4, human IgG1 L234A/L235A, kappa; also called Humanized 180_04; Hz 180 04
# Legend:
# [1] = target: T1, recombinant human ILT4 (LILRB2) (human, UniProt Q8N423 22-460); experiment: SPR, Biacore T200, medium resolution; koff held at its limit of 4.27e-5 s^-1
# T1 construct: Bought protein (Acro Biosystems or R&D Systems); also called ILTR4
# Procedure, shortened: (§1)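 Mouse, chimeric or humanized mAbs captured on anti-Fc surfaces (CM4 chip); ILT4 injected at 101 to 0.79 nM, 2-fold series, 90 s association, 1200 s dissociation. Run at 25° C in HBS-P+ pH 7.4 with 100 μg/ml BSA; double-referenced global 1:1 fit with mass-transport term, KD=koff/kon.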
# [2] = target: T2, LILRA3 (human, UniProt Q8N6C8 24-439); experiment: SPR, Biacore 8K, mAb captured on anti-human Fc, LILRA3 at 100 nM; legend: + weak binding (~600-700 nM KD)
# T2 construct: Bought protein; limits of the part used are marked by bold type not visible here; whole entry named; also called recombinant human LILRA3
# Protocol: (§2) SPR was used to determine the specificity of four humanized anti-ILT4 mAbs for binding to LILRB2 and to determine any cross-reactivity with nine other LILRA and LILRB family members. LILR proteins were purchased from Acro Biosystems or R&D Systems, with sequence provided below. The studies were performed with a Biacore 8K instrument using a CM4 sensor chip with a running buffer of HBS-P+, 100 μg/mL BSA. Anti-human Fc specific capture surfaces were prepared using standard amine coupling chemistry. MAb was captured to flow cell 2 with flow cell 1 serving as the reference flow cell. Each of the nine family members and LILRB2 were injected at 100 nM at 30 μL/min for 90 sec with 240 sec of dissociation. […] All sensorgrams were doubled-referenced during processing of the data.
# [3] = target: T1, recombinant human ILT4 (LILRB2); experiment: KinExA, solution equilibrium, n-curve analysis
# Protocol: Kinetic Exclusion Assay (KinExA®) was performed to measure the equilibrium binding affinity and kinetics between human ILT4 and four humanized LALA-Fc modified antibodies in solution. For affinity analysis, the equilibrium dissociation constant, KD, was experimentally determined and reflects the strength of the binding interaction. The rate of association, kₒₙ, was also experimentally determined, while the rate of dissociation, koff, is calculated based on the following equation: koff=KD×kₒₙ
# The binding affinity (KD), association (kₒₙ), and dissociation rate constants (koff) were measured for 4 different Humanized LALA IgG antibodies to ILT4 using KinExA. An n-curve analysis of at least two different curves, run at two different CBP concentrations, was used to determine the KD of the interactions The ILT4 was used as the concentration reference for all curves. All of the binding systems have low error and well defined 95% confidence intervals giving confidence to the measurements: […]
# [4] = target: T2, LILRA3; experiment: SPR, Biacore 8K cross-reactivity study, single concentration 100 nM; lower end of the range 600-700 nM
# Protocol: as §2
# [5] = target: T1, recombinant human ILT4 (LILRB2); experiment: SPR, Biacore T200, mAb captured on anti-Fc, ILT4 injected, medium resolution, 25 C
# Procedure, shortened: as §1
# [6] = target: T1, recombinant human ILT4 (LILRB2); experiment: SPR, high resolution kinetics, triplicate, LALA antibody
# [7] = target: T1, recombinant human ILT4 (LILRB2); experiment: SPR, high resolution kinetics, triplicate, LALA antibody; 95% CI in parentheses
# [8] = target: T3, LILRA1 (human, UniProt O75019 17-461); experiment: SPR, Biacore 8K cross-reactivity study
# T3 construct: Bought protein; limits of the extracellular domain are marked by bold type not visible here; whole entry named; also called recombinant human LILRA1
# Protocol: as §2
# [9] = target: T4, human ILT4 expressed on cells (human, UniProt Q8N423 22-597); experiment: flow based HLA-G blocking assay
# T4 construct: whole, on cells; The same entry is used for endogenous ILT4 of human macrophages; also called CHO-S/ILT4 cells; ILT4-CHO cells
# [10] = target: T1, recombinant human ILT4 (LILRB2); experiment: SPR, Biacore 8K, mAb captured on anti-human Fc, LILRB2 at 100 nM; legend: ++++ tight binding (<100 pM KD)
# Protocol: as §2
# [11] = target: T5, LILRA5 (human, UniProt A6NI73 42-268); experiment: SPR, Biacore 8K, mAb captured on anti-human Fc, analyte injected
# T5 construct: Bought protein; limits of the extracellular domain are marked by bold type not visible here; whole entry named; also called recombinant human LILRA5
# Protocol: as §2
# [12] = target: T6, LILRA4 (human, UniProt P59901 24-446); experiment: as above
# T6 construct: Bought protein; limits of the extracellular domain are marked by bold type not visible here; whole entry named; also called recombinant human LILRA4
# Protocol: as §2
# [13] = target: T7, LILRB3 (human, UniProt O75022 24-443); experiment: as above
# T7 construct: Bought protein; limits of the extracellular domain are marked by bold type not visible here; whole entry named; also called recombinant human LILRB3; ILT5
# Protocol: as §2
# [14] = target: T8, LILRB4 (human, UniProt Q8NHJ6 22-259); experiment: as above
# T8 construct: Bought protein; limits of the extracellular domain are marked by bold type not visible here; whole entry named; also called recombinant human LILRB4; ILT3
# Protocol: as §2
# [15] = target: T9, LILRA6 (human, UniProt Q6PI73 24-447); experiment: as above
# T9 construct: Bought protein; limits of the extracellular domain are marked by bold type not visible here; whole entry named; also called recombinant human LILRA6
# Protocol: as §2
# [16] = target: T10, LILRA2 (human, UniProt Q8N149 24-449); experiment: as above
# T10 construct: Bought protein; limits of the extracellular domain are marked by bold type not visible here; whole entry named; also called recombinant human LILRA2
# Protocol: as §2
# [17] = target: T2, LILRA3; experiment: SPR, Biacore 8K cross-reactivity study, single concentration 100 nM; upper end of the range 600-700 nM
# Protocol: as §2
# T1 sequence (Q8N423 other isoform, or with tags, fused parts or gaps limits assumed): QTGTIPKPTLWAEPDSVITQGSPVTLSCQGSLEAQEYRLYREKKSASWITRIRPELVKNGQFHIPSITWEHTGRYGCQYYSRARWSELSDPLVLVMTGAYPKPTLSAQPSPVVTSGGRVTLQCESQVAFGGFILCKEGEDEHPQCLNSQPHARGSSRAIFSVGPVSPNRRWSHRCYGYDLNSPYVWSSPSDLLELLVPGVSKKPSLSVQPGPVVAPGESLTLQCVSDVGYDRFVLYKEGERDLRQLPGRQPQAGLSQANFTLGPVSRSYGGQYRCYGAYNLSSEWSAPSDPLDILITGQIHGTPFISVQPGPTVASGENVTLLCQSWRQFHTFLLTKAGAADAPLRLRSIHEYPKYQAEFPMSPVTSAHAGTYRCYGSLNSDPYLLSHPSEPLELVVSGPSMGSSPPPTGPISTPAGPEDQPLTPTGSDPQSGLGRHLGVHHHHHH
# T2 sequence (Q8N6C8 24-439 A105V limits assumed): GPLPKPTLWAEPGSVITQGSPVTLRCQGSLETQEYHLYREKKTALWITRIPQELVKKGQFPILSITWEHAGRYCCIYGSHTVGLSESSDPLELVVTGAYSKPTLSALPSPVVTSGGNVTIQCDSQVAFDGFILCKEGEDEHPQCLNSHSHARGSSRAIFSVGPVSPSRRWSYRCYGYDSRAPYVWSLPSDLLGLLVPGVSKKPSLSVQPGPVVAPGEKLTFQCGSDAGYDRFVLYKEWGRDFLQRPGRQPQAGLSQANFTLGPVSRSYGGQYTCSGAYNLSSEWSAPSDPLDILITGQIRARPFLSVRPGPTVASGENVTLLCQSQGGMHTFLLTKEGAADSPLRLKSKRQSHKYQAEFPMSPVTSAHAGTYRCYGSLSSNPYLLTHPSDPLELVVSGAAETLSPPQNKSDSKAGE
# T9 sequence (Q6PI73 other isoform, or with tags, fused parts or gaps): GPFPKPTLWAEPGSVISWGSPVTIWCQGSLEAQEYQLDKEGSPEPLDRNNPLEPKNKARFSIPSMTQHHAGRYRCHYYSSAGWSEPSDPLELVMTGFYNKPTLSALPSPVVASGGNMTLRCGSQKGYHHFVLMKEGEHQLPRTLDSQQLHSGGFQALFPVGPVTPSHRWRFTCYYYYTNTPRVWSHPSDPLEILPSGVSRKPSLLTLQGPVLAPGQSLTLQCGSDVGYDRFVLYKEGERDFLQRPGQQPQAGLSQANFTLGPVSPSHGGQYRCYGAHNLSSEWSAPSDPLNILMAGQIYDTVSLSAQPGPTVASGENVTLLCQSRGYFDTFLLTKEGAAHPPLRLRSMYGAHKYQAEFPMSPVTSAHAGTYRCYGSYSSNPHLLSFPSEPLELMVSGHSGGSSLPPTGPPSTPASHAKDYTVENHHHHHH
# T6 sequence (P59901 other isoform, or with tags, fused parts or gaps): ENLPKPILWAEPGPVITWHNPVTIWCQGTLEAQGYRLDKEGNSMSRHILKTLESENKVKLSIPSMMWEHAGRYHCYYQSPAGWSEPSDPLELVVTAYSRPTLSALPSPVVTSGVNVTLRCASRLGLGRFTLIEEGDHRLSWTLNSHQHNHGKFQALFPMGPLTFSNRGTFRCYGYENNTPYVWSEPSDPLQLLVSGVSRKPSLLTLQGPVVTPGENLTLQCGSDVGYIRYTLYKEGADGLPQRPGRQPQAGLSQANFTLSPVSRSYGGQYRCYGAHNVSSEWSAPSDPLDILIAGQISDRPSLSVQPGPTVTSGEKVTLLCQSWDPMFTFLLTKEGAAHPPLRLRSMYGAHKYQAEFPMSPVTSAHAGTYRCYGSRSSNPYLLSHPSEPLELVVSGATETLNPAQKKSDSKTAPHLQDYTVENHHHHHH
# T7 sequence (O75022 other isoform, or with tags, fused parts or gaps): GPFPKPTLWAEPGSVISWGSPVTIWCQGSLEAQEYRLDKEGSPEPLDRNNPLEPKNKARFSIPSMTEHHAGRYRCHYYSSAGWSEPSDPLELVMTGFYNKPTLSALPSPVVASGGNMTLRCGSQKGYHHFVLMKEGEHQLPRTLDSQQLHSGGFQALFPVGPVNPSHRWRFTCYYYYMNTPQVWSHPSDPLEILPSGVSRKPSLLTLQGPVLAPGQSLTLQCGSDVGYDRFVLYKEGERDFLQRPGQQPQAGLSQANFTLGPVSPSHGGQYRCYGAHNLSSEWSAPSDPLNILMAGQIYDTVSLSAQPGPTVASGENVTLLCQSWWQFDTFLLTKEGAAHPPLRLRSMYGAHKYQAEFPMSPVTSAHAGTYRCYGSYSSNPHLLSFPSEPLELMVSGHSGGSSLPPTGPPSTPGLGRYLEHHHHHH
# T4 sequence (Q8N423 22-597): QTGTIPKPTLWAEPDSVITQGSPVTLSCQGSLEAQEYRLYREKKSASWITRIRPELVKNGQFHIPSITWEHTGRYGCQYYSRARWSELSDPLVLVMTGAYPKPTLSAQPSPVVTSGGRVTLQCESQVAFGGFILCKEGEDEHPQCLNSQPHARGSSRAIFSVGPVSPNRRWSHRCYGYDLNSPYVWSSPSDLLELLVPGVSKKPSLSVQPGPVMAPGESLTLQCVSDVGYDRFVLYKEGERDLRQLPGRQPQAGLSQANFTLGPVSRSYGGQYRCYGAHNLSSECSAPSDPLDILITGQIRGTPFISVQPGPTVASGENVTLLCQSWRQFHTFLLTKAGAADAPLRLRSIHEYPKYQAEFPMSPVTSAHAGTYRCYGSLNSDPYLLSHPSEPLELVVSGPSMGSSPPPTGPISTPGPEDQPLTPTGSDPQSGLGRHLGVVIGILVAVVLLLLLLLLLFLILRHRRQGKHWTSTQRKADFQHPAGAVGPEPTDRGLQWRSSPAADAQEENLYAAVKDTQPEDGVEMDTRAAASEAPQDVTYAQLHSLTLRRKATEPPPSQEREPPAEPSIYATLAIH
# T8 sequence (Q8NHJ6 other isoform, or with tags, fused parts or gaps): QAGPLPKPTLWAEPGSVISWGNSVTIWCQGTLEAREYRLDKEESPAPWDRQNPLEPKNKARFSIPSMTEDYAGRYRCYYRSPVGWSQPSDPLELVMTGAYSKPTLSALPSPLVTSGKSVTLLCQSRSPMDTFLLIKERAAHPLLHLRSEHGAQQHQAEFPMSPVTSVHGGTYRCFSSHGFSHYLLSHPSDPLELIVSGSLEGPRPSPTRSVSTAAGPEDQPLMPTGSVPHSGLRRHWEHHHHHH
# T5 sequence (A6NI73 other isoform, or with tags, fused parts or gaps): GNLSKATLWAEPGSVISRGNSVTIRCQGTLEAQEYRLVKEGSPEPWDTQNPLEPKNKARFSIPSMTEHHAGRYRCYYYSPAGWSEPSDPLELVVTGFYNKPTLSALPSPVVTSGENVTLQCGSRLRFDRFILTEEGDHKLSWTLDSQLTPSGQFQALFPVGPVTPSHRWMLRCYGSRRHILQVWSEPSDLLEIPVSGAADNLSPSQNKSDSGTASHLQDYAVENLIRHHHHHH
# T3 sequence (O75019 other isoform, or with tags, fused parts or gaps): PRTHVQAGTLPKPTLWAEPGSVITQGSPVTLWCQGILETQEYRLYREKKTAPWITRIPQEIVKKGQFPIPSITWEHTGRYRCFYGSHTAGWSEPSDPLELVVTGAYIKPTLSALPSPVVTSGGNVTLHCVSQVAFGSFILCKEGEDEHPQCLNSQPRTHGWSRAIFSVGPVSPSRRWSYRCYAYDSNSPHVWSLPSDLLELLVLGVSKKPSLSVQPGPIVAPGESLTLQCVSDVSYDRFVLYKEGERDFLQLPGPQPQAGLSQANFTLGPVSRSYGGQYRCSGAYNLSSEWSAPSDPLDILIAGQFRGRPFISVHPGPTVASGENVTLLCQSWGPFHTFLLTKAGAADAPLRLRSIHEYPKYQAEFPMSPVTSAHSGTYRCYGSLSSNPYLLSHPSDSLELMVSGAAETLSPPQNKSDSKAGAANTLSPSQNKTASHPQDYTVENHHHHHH
# T10 sequence (Q8N149 other isoform, or with tags, fused parts or gaps): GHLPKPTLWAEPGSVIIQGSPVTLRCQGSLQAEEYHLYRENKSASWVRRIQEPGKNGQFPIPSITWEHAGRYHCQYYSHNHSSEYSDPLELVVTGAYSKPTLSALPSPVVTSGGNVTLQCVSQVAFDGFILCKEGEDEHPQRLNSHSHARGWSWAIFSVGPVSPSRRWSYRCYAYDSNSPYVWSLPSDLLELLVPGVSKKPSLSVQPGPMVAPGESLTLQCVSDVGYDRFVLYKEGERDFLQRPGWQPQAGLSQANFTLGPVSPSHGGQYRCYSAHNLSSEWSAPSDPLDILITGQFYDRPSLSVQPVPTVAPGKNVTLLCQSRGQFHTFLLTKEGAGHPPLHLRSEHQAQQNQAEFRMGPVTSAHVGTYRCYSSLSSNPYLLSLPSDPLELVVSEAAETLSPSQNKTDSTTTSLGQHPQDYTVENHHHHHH
binder,measurement,setting,value
B1,Kd,[1],≤ 0.053 nM
same,koff,[1],≤ 4.27e-05 s⁻¹
same,KD,[2],600 to 700 nM
same,Kd,[3],0.000759 nM
same,Kd,[4],600 to 700 nM
same,kon,[5],812000 M⁻¹ s⁻¹
same,Kd,[6],0.0016 nM
same,koff,[6],6.3e-06 s⁻¹
same,kon,[7],3.95e+06 M⁻¹ s⁻¹
same,binding result,[8],binds
same,IC50,[9],0.051 µg/mL
same,KD,[10],< 0.1 nM
same,binding result,[11],no binding (tested: 100 nM)
same,binding result,[12],no binding (tested: 100 nM)
same,binding result,[13],no binding (tested: 100 nM)
same,binding result,[14],no binding (tested: 100 nM)
same,binding result,[15],no binding (tested: 100 nM)
same,binding result,[16],no binding (tested: 100 nM)
same,Kd,[17],600 to 700 nM
